Data taken from the supplement of paper PMC11246515.
± gives the standard deviation of the averaged measurements.

Test: total protein half-life in vivo (active degradation + dilution); higher = more stable protein
[1] = E. coli NCM3722 delta-clpP delta-lon delta-hslV, growth: N-lim chemostat, doubling time 6 h
[2] = E. coli NCM3722 delta-clpP, growth: N-lim chemostat, doubling time 6 h
[3] = E. coli NCM3722 delta-hslV, growth: N-lim chemostat, doubling time 6 h
[4] = E. coli NCM3722 delta-lon, growth: N-lim chemostat, doubling time 6 h
[5] = E. coli NCM3722 delta-smpB, growth: N-lim chemostat, doubling time 6 h
[6] = wild type E. coli NCM3722, growth: C-lim chemostat, doubling time 3 h
[7] = wild type E. coli NCM3722, growth: C-lim chemostat, doubling time 6 h
[8] = wild type E. coli NCM3722, growth: C-lim chemostat, doubling time 12 h
[9] = wild type E. coli NCM3722, growth: N-lim chemostat, doubling time 6 h
[10] = wild type E. coli NCM3722, growth: N-lim chemostat, doubling time 12 h
[11] = wild type E. coli NCM3722, growth: P-lim chemostat, doubling time 6 h
[12] = wild type E. coli NCM3722, growth: P-lim chemostat, doubling time 12 h

Sequence	total protein half-life in vivo [1] [h]	total protein half-life in vivo [2] [h]	total protein half-life in vivo [3] [h]	total protein half-life in vivo [4] [h]	total protein half-life in vivo [5] [h]	total protein half-life in vivo [6] [h]	total protein half-life in vivo [7] [h]	total protein half-life in vivo [8] [h]	total protein half-life in vivo [9] [h]	total protein half-life in vivo [10] [h]	total protein half-life in vivo [11] [h]	total protein half-life in vivo [12] [h]
MAEFPASLLILNGKSTDNLPLREAIMLLREEGMTIHVRVTWEKGDAARYVEEARKFGVATVIAGGGDGTINEVSTALIQCEGDDIPALGILPLGTANDFATSVGIPEALDKALKLAIAGDAIAIDMAQVNKQTCFINMATGGFGTRITTETPEKLKAALGSVSYIIHGLMRMDTLQPDRCEIRGENFHWQGDALVIGIGNGRQAGGGQQLCPNALINDGLLQLRIFTGDEILPALVSTLKSDEDNPNIIEGASSWFDIQAPHDITFNLDGEPLSGQNFHIEILPAALRCRLPPDCPLLR	5 ± 0.044	4.23 ± 0.21	3.94 ± 0.33	4.69 ± 0.069	4.31 ± 0.74	3.19 ± 0.41	5.73 ± 0.4	9.08 ± 0.56	4.51 ± 0.3	7.91 ± 0.14	5.17 ± 0.48	9.75 ± 0.16
MAEHRGGSGNFAEDREKASDAGRKGGQHSGGNFKNDPQRASEAGKKGGQQSGGNKSGKS	0.599			1.5					1.49	1.92 ± 0.038		
MAEKFIKHTGLVVPLDAANVDTDAIIPKQFLQKVTRTGFGAHLFNDWRFLDEKGQQPNPDFVLNFPQYQGASILLARENFGCGSSREHAPWALTDYGFKVVIAPSFADIFYGNSFNNQLLPVKLSDAEVDELFALVKANPGIHFDVDLEAQEVKAGEKTYRFTIDAFRRHCMMNGLDSIGLTLQHDDAIAAYEAKQPAFMN	3.91 ± 0.1	1.33 ± 0.047	2.363 ± 0.02	3.85 ± 0.072	2.306 ± 0.018	1.96 ± 0.16	3.02 ± 0.097	3.926 ± 0.038	2.54 ± 0.17	4.05 ± 1.3	2.1 ± 0.28	5.15 ± 0.8
MAEKKQWHETLHDQFGQYFAVDNVLYHEKTDHQDLIIFENAAFGRVMALDGVVQTTERDEFIYHEMMTHVPLLAHGHAKHVLIIGGGDGAMLREVTRHKNVESITMVEIDAGVVSFCRQYLPNHNAGSYDDPRFKLVIDDGVNFVNQTSQTFDVIISDCTDPIGPGESLFTSAFYEGCKRCLNPGGIFVAQNGVCFLQQEEAIDSHRKLSHYFSDVGFYQAAIPTYYGGIMTFAWATDNDALRHLSTEIIQARFLASGLKCRYYNPAIHTAAFALPQYLQDALASQPS		4.62 ± 0.2	4.51 ± 0.12	4.89 ± 0.27	4.49 ± 0.41		7.06 ± 0.82	9.58 ± 0.14	4.21 ± 0.35	7.27 ± 0.36	5.86 ± 0.46	13 ± 2.3
MAEKQTAKRNRREEILQSLALMLESSDGSQRITTAKLAASVGVSEAALYRHFPSKTRMFDSLIEFIEDSLITRINLILKDEKDTTARLRLIVLLLLGFGERNPGLTRILTGHALMFEQDRLQGRINQLFERIEAQLRQVLREKRMREGEGYTTDETLLASQILAFCEGMLSRFVRSEFKYRPTDDFDARWPLIAAQLQ [P0C093]	6.82 ± 0.62		5.04 ± 0.42	5.5 ± 0.72	4.65 ± 0.39	2.5806 ± 0.0014	5.49 ± 0.15	9.76 ± 1.4	4.89 ± 0.97	9.106 ± 0.086	4.14 ± 0.13	7.01 ± 0.77
MAEKRNIFLVGPMGAGKSTIGRQLAQQLNMEFYDSDQEIEKRTGADVGWVFDLEGEEGFRDREEKVINELTEKQGIVLATGGGSVKSRETRNRLSARGVVVYLETTIEKQLARTQRDKKRPLLHVETPPREVLEALANERNPLYEEIADVTIRTDDQSAKVVANQIIHMLESN [P0A6D7]	4.84 ± 0.069	3.45 ± 0.24	2.76 ± 0.24	4.2 ± 0.64	2.69 ± 0.079	2.24 ± 0.27	3.989 ± 0.026	5.31 ± 0.22	2.26 ± 0.05	3.61 ± 0.34	2.62 ± 0.12	4.5 ± 0.26
MAELLLGVNIDHIATLRNARGTAYPDPVQAAFIAEQAGADGITVHLREDRRHITDRDVRILRQTLDTRMNLEMAVTEEMLAIAVETKPHFCCLVPEKRQEVTTEGGLDVAGQRDKMRDACKRLADAGIQVSLFIDADEEQIKAAAEVGAPFIEIHTGCYADAKTDAEQAQELARIAKAATFAASLGLKVNAGHGLTYHNVKAIAAIPEMHELNIGHAIIGRAVMTGLKDAVAEMKRLMLEARG [P0A794]	5.813 ± 0.038	5.468 ± 0.049	5.95 ± 0.48	5.61 ± 0.29	5.4 ± 0.14	3.17 ± 0.12	5.5 ± 0.1	11.7 ± 0.53	5.9 ± 0.39	9.84 ± 0.17	6.06 ± 0.43	
MAELTALHTLTAQMKREGIRRLLVLSGEEGWCFEHTLKLRDALPGDWLWISPRPDAENHCSPSALQTLLGREFRHAVFDARHGFDAAAFAALSGTLKAGSWLVLLLPVWEEWENQPDADSLRWSDCPDPIATPHFVQHLKRVLTADNEAILWRQNQPFSLAHFTPRTDWYPATGAPQPEQQQLLKQLMTMPPGVAAVTAARGRGKSALAGQLISRIAGRAIVTAPAKASTDVLAQFAGEKFRFIAPDALLASDEQADWLVVDEAAAIPAPLLHQLVSRFPRTLLTTTVQGYEGTGRGFLLKFCARFPHLHRFELQQPIRWAQGCPLEKMVSEALVFDDENFTHTPQGNIVISAFEQTLWQSDPETPLKVYQLLSGAHYRTSPLDLRRMMDAPGQHFLQAAGENEIAGALWLVDEGGLSQQLSQAVWAGFRRPRGNLVAQSLAAHGNNPLAATLRGRRVSRIAVHPARQREGTGRQLIAGALQYTQDLDYLSVSFGYTGELWRFWQRCGFVLVRMGNHREASSGCYTAMALLPMSDAGKQLAEREHYRLRRDAQALAQWNGETLPVDPLNDAVLSDDDWLELAGFAFAHRPLLTSLGCLLRLLQTSELALPALRGRLQKNASDAQLCTTLKLSGRKMLLVRQREEAAQALFALNDVRTERLRDRITQWQLFH	5 ± 1.1	4.59 ± 0.41	4.37 ± 0.39	4.56 ± 0.19	4.39 ± 0.29	3.04 ± 0.3	6.05 ± 0.38		4.07 ± 1.4	7.56 ± 0.58	6.65 ± 0.2	12.2 ± 1.5
